Here are results for one molecule from patent US20180094051A1, “METHOD FOR INHIBITING LYMPHANGIOGENESIS BY ADMINISTRATION OF AN INHIBITOR OF THE CXCL12 PATHWAY” (Tsinghua University, priority 2012, published 2018).

Type in all cases: cell-based
Assay [1] has as its system chemokine receptor CXCR4. The assay can be described thus: qRT-PCR of chemokine receptor mRNA in VEGF-C-stimulated lymphatic endothelial cells. To be noted: VEGF-C-stimulated mouse lymphatic endothelial cells vs untreated cells. The procedure: The isolation and extraction of total RNA from cells was performed using TRIZOL reagent (purchased from Invitrogen) following the standard operations as described in the reagent instructions. 1 mL of TRIZOL was added to the primary lymphatic endothelial cells (about 1×10^6) collected by centrifugation, repeatedly pipetted up and down for 30 times, and then set aside at room temperature for 5 minutes. After centrifugation at 10,000×g at 4° C. for 15 minutes, the supernatant was […] gently. 0.2 mL of chloroform was added to the supernatant, vortexed vigorously for about 15 seconds, and then set aside at room temperature for 3 minutes. […]
The synthesis of first strand cDNA was performed using a Fermentas kit (RevertAid™ First Strand cDNA Synthesis Kits) according to the standard instructions. […] The reverse transcription product was used in subsequent PCR and fluorescence quantitative RT-PCR, and the rest of the product was stored in a refrigerator at −80° C.
Fluorescence Quantitative Real-Time PCR was performed using a kit from Stratagene (Brilliant II SYBR® Green QRT-PCR Master Mix). The fluorescence quantitative PCR instrument was MX3000P (purchased from Stratagene), the fluorescence dye was SYBR Green, the volume of the reaction system was 20 μL, and the cycle number of the reaction was 40. […]
In general terms: In qPCR the cycle at which signal appears reflects the starting amount.

Assay [2] deals with chemokine receptor CXCR4. The assay can be described thus: Flow cytometry of CXCR4 on the surface of lymphatic endothelial cells. The following applies: starved mouse lymphatic endothelial cells, 100 ng/mL VEGF-C, 24 hours. The procedure:
Mouse primary lymphatic endothelial cells at passage 2 or 3 in good condition were selected and seeded into four 6 cm Petri dishes. Two groups of cells were cultured normally, while the other two groups of cells were treated by replacing the medium with a medium free of serum and growth factors when the cell density reached 80%, and starved overnight. One of the two groups was cultured for 24 hours after the medium was replaced with a serum-free culture medium containing 100 ng/mL of VEGF-C. The four groups of cells were detected for the expression level of chemokine receptor CXCR4 on the cell surface by flow cytometry. The group of cells cultured normally was used as negative control.
The cells were treated with 0.25% disodium EDTA (Ethylenediaminetetraacetic Acid Disodium Salt, EDTA), then washed with ice-cold PBS. The cells were suspended and centrifuged at a low speed (600 g, 3 minutes; the low-speed centrifugations in this experiment all referred to centrifugation at this speed for this time). The cells were resuspended in 1 mL of PBS containing 10% goat serum and then incubated for 15 minutes. […]
Each group of cells were resuspended in 1 mL of PBS containing 2% goat serum, and then 1 μg of fluorescein-labeled secondary antibody was added. […] The expression of CXCR4 on cell surface was analyzed by flow cytometry (FACS Calibur Flow Cytometry System, Becton Dickinson).

In another assay the test system is HIF-1α. The assay can be described thus: Immunoblotting of HIF-1α in lymphatic endothelial cells. The following applies: mouse lymphatic endothelial cells, 100 ng/mL VEGF-C. On the technique in general: A western blot detects proteins with antibodies after separation by electrophoresis.

“Also recorded” adds a separate entry of the source.

B1: VEGF-C: Vascular Endothelial Growth Factor C, the major pro-lymphangiogenesis factor; purchased from R&D Systems (protein, UniProt P49767 112-227, looked up)
Vascular endothelial growth …: AHYNTEILKSIDNEWRKTQCMPREVCIDVGKEFGVATNTFFKPPCVSVYRCGGCCNSEGLQCMNTSTSYLSKTLFEITVPLSQGPKPVTISFANHTSCRCMSKLDVYRQVHSIIRR
Take B1: in the assay on chemokine receptor CXCR4 [1], the “chemokine receptor CXCR4 mRNA level” value is on record as “significantly upregulated by about three times; also recorded: specifically up-regulated the expression of chemokine receptor CXCR4”. For the same molecule, the “cell surface CXCR4 protein level” value with chemokine receptor CXCR4 [2] is “could indeed upregulate the expression level of chemokine receptor CXCR4”. Besides, the “expression level of HIF-1α” value in the assay on HIF-1α was “could indeed upregulate the expression level of HIF-1α; also recorded: could up-regulate the expression of CXCR4 and HIF-1α”.
